Reference: the nanobody polyreactivity screen of Harvey et al. (2022)

Experiment: yeast display, Sf9 membrane polyspecificity reagent, FACS + sequencing; frameworks hold sequencing errors
Outline: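 Nanobodies came from a synthetic yeast display library in Saccharomyces cerevisiae BJ5465, induced with galactose for 36–48 hours and stained for 1 hour at 4 °C with 10% biotinylated, detergent-solubilized Sf9 membrane reagent. Cells were enriched on streptavidin microbeads and then FACS-sorted, with low and high (top ~1%) gates set on anti-HA fluorescence for expression and streptavidin fluorescence for reagent binding. Each polyreactivity label reflects the gate a clone came from. Genes were amplified by colony PCR, sequenced by MiSeq 2 × 250 and filtered by CDR length.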

| Sequence | polyreactivity (PSR sort gate) |
| --- | --- |
| QVQLVESGGGLVQAGGSLRLSCAASGSIFDLNAMGWYRQAPGKERELGAAISSGGGTYYADSVKGRFTISRDNAKNTVYLQMNSLKPEDTAVYYCNRVTSWTYNYWGQGTQVTVSS | high polyreactivity |
| QVQLVESGGGLVQAGGSLRLSCAASGRTFRVYAMGWYRQAPGKEREFVAAISYSGGRTYYADSVKGRFTISRDNAKNTVYLQMKSLKPEDTAVYYCAKRVPYGRGVTGYYWGQGTQVTVSS | high polyreactivity |
| QVQLVESGGGLVQAGGSLRLSCAASGRTFGTNAMGWYRQAPGKERELVASIDLSADSTYYADSVKGRFTISRDNAKNNFYLQMNSLKPEDTAVYYCNKDGYPWPPNLDYWGQGTQVTVSS | low polyreactivity |
| QVQLVESGGGLVQAGGSLRLSCAASGFIFGYNAMVWYRQAPGKERELVARINSGGNTNYADSVKGRFTISRDNAKNTVYLQMNSLKPDDTAVYYCARDASNRYDYWGQGTLVTVSS | low polyreactivity |
| QVQHVESGGGLVQAGGSLRLSCAASGLTFSTYDMGWYRQAPGKERDLVAAITYSGGSTYYADSVKGRFTISRDHAKNTVYLQMNSLKPEDTAVYYSATTWYFVASWYVAIYDYWGQGTQVTVST | low polyreactivity |
| QVQLVESGGGLVQAGGSLRLSCAASGSIFDRNAMGWYRQAPGKERELVAAINSNAGITYYADSVKGRFTISRDNAKITVYLQMNSLKPEDTAVYYCAADIRVVYREDHWGQGTQVTVSS | low polyreactivity |
| QVQLVESGGCLVQAGGSLRLSCAASGFTFLDYVMGWYRPAPGKERELVAVITVSGGSTYYADSVKGRFTISRDNAKNTVYLQMTSLKPEDTAVYYCNAYTIEYPFGDSYWYNYDYWGQGTQVTVSS | high polyreactivity |
| QVQLVESGGGLVQAGGSLRLSSAASGFIFPDYAMGWYRQAPGKERELVAAISFRDGSTYYADSVKGRFTISRDNAKNTVYLQMNSLKPEDTAVYFCAVRQVNWFGIGYEDDYWGQGTQVTVSS | low polyreactivity |
| QVQLVESWGGLVQAGGSLRLSCAASGRTFIRYTMGWYRQAPGKERELVASIRYSGASTSYADSVKGRFTISRDNAKNTVYLQMNSLKPEDTAVYYCAADRYWWWYNSPYSGMDYWGQGTQVTVSS | high polyreactivity |
| QVQLVESGVGLVQAGGSLRLSCAASGRIFRWYAMGWYRQAPGKERELVASITWNGGSTYYADSVKGRFTISRDNAKNTVYLQMNSLKPEDNAVYYCAVPFYRGPEMGYWGQGTQVTVSS | high polyreactivity |
| QVQLVESGGGLVQAGGSLRLSCAASGYTFYYYAMGWYRQAPGKERELVAGISGRGGSTYYADSVKGRFTISRDNAKNTVYLQMNSLKPEDTAVYYCAATSPRAGTRRYEYWGQGTQVTVSS | high polyreactivity |
| QVQLVESGAGLVQAGVSLGLSCAASGFTFVRDAMGWYRQAPGKEREFVASISARGGNTFYADSVQGRFSISRDNAKNTVYLKMNSLKPEDTAVYYCAKRGPYGTGYGYWGQGTQVTVSS | high polyreactivity |
| QVQLVESGGGLVQAGGSLRLSCDASGSTFWYYAMGWYRQAPGKERELVASITSSGSTNYADSVKGRFTISRDNAKNTVYLQMNSLKPEDTAVYYCNRVSKYERLSRYGYYGYYYWGQGTQVTVSS | high polyreactivity |
| QVQLVESGGGLVQAVGSLRLSCAASGSIFTPYAMGWYRQAPGKERELVAAISGSGGSTRYADSVKGRFTISRDNATNTVYLQMNSLKPEDTAVYYCAADRYTYIWYHIYDYWGQGTQVTVSS | low polyreactivity |
| QVQLVESGGGLVQAGGSLRLSCAASGSIFEEYAMGWYRQAPGKERELVARIDESGGSTYYADSVKGRFTISRDTAKNTVYLQMNSLKPEDTAVYYCAAERYSDSWGYYSVDEGSWEMDYWGQGTQVTVSS | low polyreactivity |
| QVQLEESGGGLVQAGGSLRLSCAASGYTFSFYAMGWYRQAPGKERELVAAISRSGGSTYYADSVKGRFTISRDNAKNTVYLQMNSLKPEDTAVYYCAARWPGAYHEYGYWGQGTQVTVSS | high polyreactivity |
| QVQLVESGGGLVQAGRTLRLSCAASGNIFDLNAMGWYRPAPGKERELVAAIDRGGGSTYYADSVKGRFTISRDNATNTVYLHMNSLKTEDTAVYYCSAVDQESNPAGGYWGQGSQVTVSS | low polyreactivity |
| QLQLVESGGGLVQAGGSLRLSSAASGFIFDGNAMGGYRQAPGKERELVAAISWDGGTYYADSVKGRFTISRDNAKNTVYLQMNSLKPEDTAVDYCPAEQTQLYSFGWDEYWGQGTQVTVSS | low polyreactivity |
| QVQLVESGGGLVQAGGSLRLSCAASGITFGYYAMGWYRQAPGKERELVATITDGGGTKYADSVKGRFTISRDNAKNTVYLQMNSLKPEDTAVYYCAAGLRHVYATEYDYWGQGTQVTVSS | low polyreactivity |
| QVQLVESGGGLVQAGGSIRLSCAASASIFQSYAMGWYRQAAGKERELVATITYSAGSTYYSDSVKGRFTITRDNAKNTVYLQMNSLKPEDTAVYYCDARRRGTIKTRMDYWGQGTQVTVSS | high polyreactivity |
| QVQLVESGGGLVQAGGSLRLSCAASGRTFALYAMGWYRQAPGKERELVATITFIGDSTYYADSVKGRFTISRDNAKNTVYLQMNCLKPVDTAVYYCNATYGPYYPGIVTYIWFDHWGQGSQVTVSS | low polyreactivity |
| QVQLVDSGGGLVQAGGSLRLSCAASGITFYYYAMGRYIQAPGKERELVAAISWSGGSTYYADSVKGRFTISRDNAKNTVYLPMNSLIPEDTAVYYCAATPYQYHDGGYWGQGTQVTVSS | high polyreactivity |

| Sequence | polyreactivity (PSR sort gate) |
| --- | --- |
| QVQLVESGRGLVQAGGSLRLSCAASGSIFGRNAMGWYRQAPGKERELVAAITWRGGRTYYADSVKGRFTISRDNAKNTVYLQMNSLKPEDTAVYYCAAVVAYQYTGYRFDYWGQGTQVTVSS | high polyreactivity |
| QVQLVESGGGLVQAGGSPRLSCAASGIIFQHNAMGWYRQAPGKERELVAAISSNGGRTFYADSVKGRFTISRDNAKNTVYLQMNSLKPEDTAVYYCAADRPAYGVGYWGQGTQVTVSS | high polyreactivity |
| QVQLVESGGGLVQAGGSLRLSCAASGFTYFYAMGWYRQAPGKERELVATITINGGRTYYADSVKGRFTISRDNAKNTVYLQMNSLKPEDTAVYYCAAKSWYSYGDWGYYSWGQGTQVTVSS | high polyreactivity |
| QVQLVESGGGLVQAGGSLRLSCAASGFTFGTYAMGCYRPAPGKERELVAAISKRGGSTYYADSVKGRFTISRDNAKNTVYLQMNSLKPEDTAVYYCAATRPYSHRDYFYWGQGTQVSVSS | high polyreactivity |
| QVQLVESGGGLVQAGGSLRLSCAASGFIFWKNAMGWYRQAPGKERELVAAISWSGGRTYYADSVKGRFTISRDNAKNTFYLQINSLKPEETAVYYCNAAGRYKPGAPYDYWGQGTQVTVSS | low polyreactivity |
| QVQLVESGGGLVQAGGSLRLSCAASGRTFASNDMGWYRHAPGNERELVAGITGSGGSTYYADSVKGRFTISRDNAKNTVYLQMNSLKPEDTAVYYCAADRSRGYGYDYWGQGTQVTVSS | low polyreactivity |
| QVQLVESGGGLVQAGGSLRLSCAASGSTFRTKAMGWYRHAPGKERELVAAITSGTRTYYADSVKGRFTLSRDNAKNTVYLQMNSLKPEDTAVYYCAAEYYGSSYSNYRTEYDYWGQGTQVTVSS | low polyreactivity |
| QVQLVESGGGLVQAGGSLRLSCAASGRIFWTYAMGWYRQAPGKERELVASITWSGGTTYYADSVKGRFTISRDNAKNTVYLQMNSLKTEDTAVYYCNTDVLAPYDSGYWGQGTQVTVSS | low polyreactivity |
| QLQLVESGGGLVQAGGSLRLISAASGLTFADYAMGWYRQAPGKERELVAAISSNGGSTNYADSVKGRFTISRDNAKNTVYLQMNSLKPEDTAVYYCAARPRNNARFWDYNYWGQGTQVTVSS | high polyreactivity |
| HVQLVESGVGFVQAGGSLRLSCASSGSIFQAYAMGWYRQAPGNERELVAAISDSGGSTYYADSVKGRFTISRDNAKNTVYLQMNSLKPEDTEVYYCAADVYTRFWRVYRVDYWGQGTQVTVSS | low polyreactivity |
| QVQLVESCGGLVQAGCSLRLSCAASGRIFSTNAMGWYRPAPGKERELVAAISSSGSRTYLADSVKGRFTISRDNAKNTVYLQMNSLKPEDTAVYFCNALRNYHHYEYDYWGQGTQVTVSS | high polyreactivity |
| QVQLVDSGGGLVQAGGSLRLSCAASGSIFPPYAMGWYRQAPGKERELVAAITRSGGSTYYADSVKGRFTISRDNAKNTVYLQMNSLKPEDTAVYYCAARYPGGYGYWGQGTQVTVSS | high polyreactivity |
| QVQLVESGGGLVQAGGSLRLSCAASGRTFSSYAMGWYRQAPGKERELVAAINWSGASTYYADSVKGRFTISRDNAKNTVYLQMNSLKPEDTAVYYCAKSLYVGKYWQIRSSVDYWGQGTQVTVSS | low polyreactivity |
| QVQLVDSGGGLVQAGGSLRLSCAASGFIFIRNARGWYRQAPGKESQLVAAIRYRGGNTYYADSVKGRFTISRDNAKNTVYLQMNSLKPEDTAVYYCNAAGSYYTRSDSGYWGQGTQVTVSS | high polyreactivity |
| QDQLVESGGGFVQAGGSLRLSCEASGSIFNYYAMGCSRQAPGKERELVAAITTSGGNTYYADSVKGRFTISRDNAKNTVYLQMNSLKPEDTAVYYCAADYWASGGEYDYWGQGTQVTVSS | low polyreactivity |
| QVQIVESGGGLVQAGGSLRLSCAASGFTFRAYAMGWYRQAPGKERELDAAISKSGGRTYYADSVKGRFTISRDNAKNTVYLQMNSLKPEDTAVYYCAKAYRRAFINNPDVYYYPDDYWGQGTQVTVSS | high polyreactivity |
| QVQLVESGGGIVQAGGSLRLSCAASGNIFHQNAMGWYRQAPGKERELVAAISGSAGSTYYADSVKGRFTISRDNAKNTVYLQMNSLKPEDTAVYYCAADYYWLYNYWGQGTQVTVSS | high polyreactivity |
| QVQLVESGGGLVQAGGSLRISCAASGRTFTRYAMGWYRQAPGKERELVASITTGGRTYYADSVKGRFTISRDNAKNTVYLQMNSLKPEDTAVYYCNADRVYAWYRTYDYWGQGTQVTVSS | high polyreactivity |
| QVQLVESGGGLVQAGGSLRLSCAATGRTFGVNAMAWYRQAPGKESELVASIRWNGGSTYYADSVKGRFTISRDNAKNTVYLQMNSLKPEDTAVYYCNAVRRYRSREFDYWGQGSQVTVSS | low polyreactivity |
| QVQLVESGGGLVQAGGILRLTCAASGRIFIYYAMGWYRQAPGKERELVAAISWGGGRTYYADSVKGRFTISRDNAKNTVYLQMNSLKPEDTAVYNCAAGVYTGQHEYDYWGQGTQVTVSS | low polyreactivity |
| QVQLVESGGGLVQAGGSLRLSCAASGFIFWYYAMGWYRQAPGKERELVARITRIGGRTYYADSVKGRFTISRDNAKNTVYLQMNSLKPEDTAVYYCAKDVDKYRYDYWGQGTQVTVSS | high polyreactivity |
